In PMC2854379 one finds percent of total AKAP450 co-immunoprecipitated by CDK5RAP2 antibody data, which are given here for one substance.

This assay has as its target CDK5RAP2 (human (endogenous in HeLa)) (UniProt Q96SN8). Description: co-IP.
UniProt Q96SN8, sequence (Q96SN8 whole entry): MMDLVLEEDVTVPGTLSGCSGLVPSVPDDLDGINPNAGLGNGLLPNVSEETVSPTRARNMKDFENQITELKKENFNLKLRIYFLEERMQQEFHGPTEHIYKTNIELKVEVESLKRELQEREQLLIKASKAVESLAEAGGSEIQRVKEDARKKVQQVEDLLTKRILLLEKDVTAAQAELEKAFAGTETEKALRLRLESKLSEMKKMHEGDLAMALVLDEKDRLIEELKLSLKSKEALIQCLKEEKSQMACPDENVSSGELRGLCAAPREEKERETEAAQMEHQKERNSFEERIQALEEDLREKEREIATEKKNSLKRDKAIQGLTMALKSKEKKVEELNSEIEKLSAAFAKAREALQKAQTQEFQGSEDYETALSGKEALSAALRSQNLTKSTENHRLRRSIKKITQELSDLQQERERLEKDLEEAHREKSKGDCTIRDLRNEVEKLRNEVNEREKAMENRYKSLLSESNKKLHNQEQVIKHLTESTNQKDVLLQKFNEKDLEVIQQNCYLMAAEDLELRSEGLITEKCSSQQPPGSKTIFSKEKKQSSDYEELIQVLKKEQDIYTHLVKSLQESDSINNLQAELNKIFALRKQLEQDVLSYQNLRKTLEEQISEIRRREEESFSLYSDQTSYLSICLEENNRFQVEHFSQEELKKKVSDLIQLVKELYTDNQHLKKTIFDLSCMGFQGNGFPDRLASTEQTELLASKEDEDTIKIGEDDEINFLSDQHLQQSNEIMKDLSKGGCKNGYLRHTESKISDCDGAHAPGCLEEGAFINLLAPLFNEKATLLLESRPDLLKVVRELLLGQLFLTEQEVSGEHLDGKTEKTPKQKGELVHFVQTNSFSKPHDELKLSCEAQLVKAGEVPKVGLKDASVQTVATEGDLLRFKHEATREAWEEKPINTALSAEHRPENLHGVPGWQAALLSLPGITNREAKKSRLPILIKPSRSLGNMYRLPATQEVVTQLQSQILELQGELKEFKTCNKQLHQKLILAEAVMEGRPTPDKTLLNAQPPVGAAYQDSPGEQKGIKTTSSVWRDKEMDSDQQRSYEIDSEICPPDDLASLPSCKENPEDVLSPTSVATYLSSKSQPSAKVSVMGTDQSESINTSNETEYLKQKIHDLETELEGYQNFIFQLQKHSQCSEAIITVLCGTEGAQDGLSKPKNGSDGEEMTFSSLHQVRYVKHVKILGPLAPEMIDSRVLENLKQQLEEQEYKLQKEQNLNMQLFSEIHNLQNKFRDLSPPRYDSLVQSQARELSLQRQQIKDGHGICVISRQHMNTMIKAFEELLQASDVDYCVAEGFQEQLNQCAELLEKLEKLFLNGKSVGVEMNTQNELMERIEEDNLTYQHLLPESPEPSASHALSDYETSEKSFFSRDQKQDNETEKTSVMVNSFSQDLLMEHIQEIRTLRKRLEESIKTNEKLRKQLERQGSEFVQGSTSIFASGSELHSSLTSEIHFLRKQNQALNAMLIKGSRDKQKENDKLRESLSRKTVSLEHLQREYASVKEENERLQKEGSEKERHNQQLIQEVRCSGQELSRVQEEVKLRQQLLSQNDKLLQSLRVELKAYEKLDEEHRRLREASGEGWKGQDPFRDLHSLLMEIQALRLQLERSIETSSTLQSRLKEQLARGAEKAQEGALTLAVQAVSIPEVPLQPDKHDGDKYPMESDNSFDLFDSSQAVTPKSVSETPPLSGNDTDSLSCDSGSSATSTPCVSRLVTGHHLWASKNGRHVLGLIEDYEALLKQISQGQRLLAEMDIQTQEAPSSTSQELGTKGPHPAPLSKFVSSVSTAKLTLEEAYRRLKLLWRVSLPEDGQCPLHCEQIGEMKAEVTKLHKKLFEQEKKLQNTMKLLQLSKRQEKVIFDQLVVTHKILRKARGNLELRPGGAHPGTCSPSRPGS

AKAP450, Q99996 1-3907 displayed a percent of total AKAP450 co-immunoprecipitated by CDK5RAP2 antibody of 40%.
